# B1: DNA annealing helicase and endonuclease ZRANB3 (Homo sapiens), Q5FWF4 (parent)
# chain: MPRVHNIKKSLTPHISCVTNESDNLLDFLPDRLRAKLLPFQKDGIIFALKRNGRCMVADEMGLGKTIQAIGITYFYKEEWPLLIVVPSSLRYPWTEEIEKWIPELSPEEINVIQNKTDVRRMSTSKVTVLGYGLLTADAKTLIDALNNQNFKVVIVDESHYMKSRNATRSRILLPIVQKARRAILLTGTPALGRPEELFMQIEALFPQKFGRWTDYAKRYCNAHIRYFGKRPQWDCRGASNLNELHQLLSDIMIRRLKTEVLTQLPPKVRQRIPFDLPSAAAKELNTSFEEWEKIMRTPNSGAMETVMGLITRMFKQTAIAKAGAVKDYIKMMLQNDSLKFLVFAHHLSMLQACTEAVIENKTRYIRIDGSVSSSERIHLVNQFQKDPDTRVAILSIQAAGQGLTFTAASHVVFAELYWDPGHIKQAEDRAHRIGQCSSVNIHYLIANGTLDTLMWGMLNRKAQVTGSTLNGRKEKIQAEEGDKEKWDFLQFAEAWTPNDSSEELRKEALFTHFEKEKQHDIRSFFVPQPKKRQLMTSCDESKRFREENTVVSSDPTKTAARDIIDYESDVEPETKRLKLAASEDHCSPSEETPSQSKQIRTPLVESVQEAKAQLTTPAFPVEGWQCSLCTYINNSELPYCEMCETPQGSAVMQIDSLNHIQDKNEKDDSQKDTSKKVQTISDCEKQALAQSEPGQLADSKEETPKIEKEDGLTSQPGNEQWKSSDTLPVYDTLMFCASRNTDRIHIYTKDGKQMSCNFIPLDIKLDLWEDLPASFQLKQYRSLILRFVREWSSLTAMKQRIIRKSGQLFCSPILALEEITKQQTKQNCTKRYITKEDVAVASMDKVKNVGGHVRLITKESRPRDPFTKKLLEDGACVPFLNPYTVQADLTVKPSTSKGYLQAVDNEGNPLCLRCQQPTCQTKQACKANSWDSRFCSLKCQEEFWIRSNNSYLRAKVFETEHGVCQLCNVNAQELFLRLRDAPKSQRKNLLYATWTSKLPLEQLNEMIRNPGEGHFWQVDHIKPVYGGGGQCSLDNLQTLCTVCHKERTARQAKERSQVRRQSLASKHGSDITRFLVKK
# Variants of: B1
# Conditions: with pcna_human PCNA
row,Variant,effect of a mutation on the interaction
1,Q519A;F525A;F526A,disrupting interaction strength

# Variants of: B1
# Conditions: with pcna_human PCNA
# Remark: another data set of the same source
row,Variant,effect of a mutation on the interaction
1,Q519A;F525A;F526A;Y632A,decreasing interaction strength

# From IntAct's records for PubMed 22759634
